# Source: article PMC7689490 (Nature Communications, 2020)
# [ ]: non-standard residue; d: D form. Fluos = fluorescein label; Ahx = NCCCCCC(=O)O
# T1: macrophage migration-inhibitory factor (MIF), recombinant human, unlabelled (human, UniProt P14174 1-115)
# T1 construct: human MIF; For some biophysical methods a 90-95% pure preparation was used; also called WT-MIF; human MIF
# T1 sequence (looked up): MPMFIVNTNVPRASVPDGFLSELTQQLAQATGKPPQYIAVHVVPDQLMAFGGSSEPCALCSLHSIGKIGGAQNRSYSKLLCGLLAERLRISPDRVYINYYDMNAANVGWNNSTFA
# B1: Fluos-[A^102, A^103, A^104, A^107, A^189, A^190, A^195]-msR4M-L1 (designed binder)
# chain: Fluos-DAVANAAAGNALCK[Ahx][Ado]DRYICDRAAPNDLAV-NH2
# modifications: cysteine pairing not given here
# notes: The functional assays used the unlabelled peptide; also called Fluos-msR4M-L1(7xAla); source: synthetic peptide (Fmoc SPPS on Rink amide MBHA resin, RP-HPLC purified)
# Biological target: T1, macrophage migration-inhibitory factor …
# Experiment: other fluorescence titration; Fluos-labelled CXCR4 ectodomain peptide at 5 nM titrated with unlabelled MIF, MIF(10xAla), CXCL12 or MIF peptide fragments; 10 mM sodium phosphate, pH 7.4, 1% HFIP; emission at 522 nm; apparent KD, 1/1 binding model
# Details: both partners purified
binder,measurement,value
B1,Kd,> 1000 nM
